Source: PMC7178897

How the values were obtained:
[1] = SEC; GNL-purified Env from 293F supernatant on a Superdex 200 Increase 10/300 GL column; profile decomposed into aggregates, trimer and dimer/monomer fractions (UNICORN)
BG505 UFO trimer (HIV-1) [2] = assay: native gel or EMSA
BG505 UFO trimer (HIV-1) [3] = assay: negative-stain EM; purified Env proteins at 0.05 mg/ml, 2% uranyl acetate, reference-free 2D class averages
[4] = target: CNE5 chimeric UFO trimer with CNE6 gp41_(ECTO) (HIV-1); assay: as above
CNE6 UFO trimer (HIV-1) [5] = assay: native gel or EMSA
CNE6 UFO trimer (HIV-1) [6] = assay: negative-stain EM; purified Env proteins at 0.05 mg/ml, 2% uranyl acetate, reference-free 2D class averages
[7] = target: CNE107 chimeric UFO trimer with CNE6 gp41_(ECTO) (HIV-1); assay: as above
[8] = target: MG11 chimeric UFO trimer with CNE6 gp41_(ECTO) (HIV-1); assay: as above
MG13 UFO trimer (HIV-1) [9] = assay: native gel or EMSA
MG13 UFO trimer (HIV-1) [10] = assay: negative-stain EM; purified Env proteins at 0.05 mg/ml, 2% uranyl acetate, reference-free 2D class averages

BG505 UFO trimer
trimer content (% of the SEC profile) [1]: a rate of proper trimer folding of about 75.5%

BG505 UFO trimer (domain or fragment)
stoichiometry N (BG505 UFO trimer (HIV-1) [2]): 3 | stoichiometry N (BG505 UFO trimer (HIV-1) [3]): 3

CNE5 chimeric UFO trimer with CNE6 gp41_(ECTO) (domain or fragment)
stoichiometry N [4]: 3

CNE6 SOSIP trimer
trimer content (% of the SEC profile) [1]: 21.3% for the SOSIP construct

CNE6 UFO trimer
trimer content (% of the SEC profile) [1]: as high as 70.1% for CNE6

CNE6 UFO trimer (domain or fragment)
stoichiometry N (CNE6 UFO trimer (HIV-1) [5]): 3 | stoichiometry N (CNE6 UFO trimer (HIV-1) [6]): 3

CNE107 chimeric UFO trimer with CNE6 gp41_(ECTO) (domain or fragment)
stoichiometry N [7]: 3

MG11 chimeric UFO trimer with CNE6 gp41_(ECTO) (domain or fragment)
stoichiometry N [8]: 3

MG13 UFO trimer
trimer content (% of the SEC profile) [1]: 85.6% for MG13

MG13 UFO trimer (domain or fragment)
stoichiometry N (MG13 UFO trimer (HIV-1) [9]): 3 | stoichiometry N (MG13 UFO trimer (HIV-1) [10]): 3
